Measured values: paper PMC7367873, “Dissecting the sequence determinants for dephosphorylation by the catalytic subunits of phosphatases PP1 and PP2A” (Nature Communications, 2020)

Key:
[1] = test system: GFP-14-3-3β and its binding proteins; assay: GFP-14-3-3β co-IP with LC-MS/MS label-free quantification, untreated versus PP1c-treated; design: species or system human; conditions: log2 difference; pairwise comparison PP1 vs untreated, label-free quantification, 3 replicates each
GFP-14-3-3β = GFP-14-3-3β co-IP with LC-MS/MS, untreated GFP-14-3-3β versus GFP control (14-3-3 interactome); type: binding, human; conditions: log2 difference; pairwise comparison untreated vs GFP, label-free quantification, 3 replicates each

| Molecule | Difference (log2), PP1 vs untreated [1] | Difference (log2), untreated vs GFP (GFP-14-3-3β) |
| --- | --- | --- |
| ATAD3A (protein, UniProt Q9NVI7 2-586, looked up) ATPase family AAA …: SWLFGINKGPKGEGAGPPPPLPPAQPGAEGGGDRGLGDRPAPKDKWSNFDPTGLERAAKAARELEHSRYAKDALNLAQMQEQTLQLEQQSKLKEYEAAVEQLKSEQIRAQAEERRKTLSEETRQHQARAQYQDKLARQRYEDQLKQQQLLNEENLRKQEESVQKQEAMRRATVEREMELRHKNEMLRVEAEARARAKAERENADIIREQIRLKAAEHRQTVLESIRTAGTLFGEGFRAFVTDWDKVTATVAGLTLLAVGVYSAKNATLVAGRFIEARLGKPSLVRETSRITVLEALRHPIQVSRRLLSRPQDALEGVVLSPSLEARVRDIAIATRNTKKNRSLYRNILMYGPPGTGKTLFAKKLALHSGMDYAIMTGGDVAPMGREGVTAMHKLFDWANTSRRGLLLFVDEADAFLRKRATEKISEDLRATLNAFLYRTGQHSNKFMLVLASNQPEQFDWAINDRINEMVHFDLPGQEERERLVRMYFDKYVLKPATEGKQRLKLAQFDYGRKCSEVARLTEGMSGREIAQLAVSWQATAYASEDGVLTEAMMDTRVQDAVQQHQQKMCWLKAEGPGRGDEPSPS | 1.381 | -0.296 |
| ABCF2 (protein, UniProt Q9UG63 1-623, looked up) ATP-binding cassette …: MPSDLAKKKAAKKKEAAKARQRPRKGHEENGDVVTEPQVAEKNEANGRETTEVDLLTKELEDFEMKKAAARAVTGVLASHPNSTDVHIINLSLTFHGQELLSDTKLELNSGRRYGLIGLNGIGKSMLLSAIGKREVPIPEHIDIYHLTREMPPSDKTPLHCVMEVDTERAMLEKEAERLAHEDAECEKLMELYERLEELDADKAEMRASRILHGLGFTPAMQRKKLKDFSGGWRMRVALARALFIRPFMLLLDEPTNHLDLDACVWLEEELKTFKRILVLVSHSQDFLNGVCTNIIHMHNKKLKYYTGNYDQYVKTRLELEENQMKRFHWEQDQIAHMKNYIARFGHGSAKLARQAQSKEKTLQKMMASGLTERVVSDKTLSFYFPPCGKIPPPVIMVQNVSFKYTKDGPCIYNNLEFGIDLDTRVALVGPNGAGKSTLLKLLTGELLPTDGMIRKHSHVKIGRYHQHLQEQLDLDLSPLEYMMKCYPEIKEKEEMRKIIGRYGLTGKQQVSPIRNLSDGQKCRVCLAWLAWQNPHMLFLDEPTNHLDIETIDALADAINEFEGGMMLVSHDFRLIQQVAQEIWVCEKQTITKWPGDILAYKEHLKSKLVDEEPQLTKRTHNV | 1.378 | -0.5576 |
| CKAP4 (protein, UniProt Q07065 1-602, looked up) Cytoskeleton-associated …: MPSAKQRGSKGGHGAASPSEKGAHPSGGADDVAKKPPPAPQQPPPPPAPHPQQHPQQHPQNQAHGKGGHRGGGGGGGKSSSSSSASAAAAAAAASSSASCSRRLGRALNFLFYLALVAAAAFSGWCVHHVLEEVQQVRRSHQDFSRQREELGQGLQGVEQKVQSLQATFGTFESILRSSQHKQDLTEKAVKQGESEVSRISEVLQKLQNEILKDLSDGIHVVKDARERDFTSLENTVEERLTELTKSINDNIAIFTEVQKRSQKEINDMKAKVASLEESEGNKQDLKALKEAVKEIQTSAKSREWDMEALRSTLQTMESDIYTEVRELVSLKQEQQAFKEAADTERLALQALTEKLLRSEESVSRLPEEIRRLEEELRQLKSDSHGPKEDGGFRHSEAFEALQQKSQGLDSRLQHVEDGVLSMQVASARQTESLESLLSKSQEHEQRLAALQGRLEGLGSSEADQDGLASTVRSLGETQLVLYGDVEELKRSVGELPSTVESLQKVQEQVHTLLSQDQAQAARLPPQDFLDRLSSLDNLKASVSQVEADLKMLRTAVDSLVAYSVKIETNENNLESAKGLLDDLRNDLDRLFVKVEKIHEKV | 1.432 | -0.6332 |
| CCDC124 (protein, UniProt Q96CT7 1-223, looked up) Coiled-coil domain-containing …: MPKKFQGENTKSAAARARRAEAKAAADAKKQKELEDAYWKDDDKHVMRKEQRKEEKEKRRLDQLERKKETQRLLEEEDSKLKGGKAPRVATSSKVTRAQIEDTLRRDHQLREAPDTAEKAKSHLEVPLEENVNRRVLEEGSVEARTIEDAIAVLSVAEEAADRHPERRMRAAFTAFEEAQLPRLKQENPNMRLSQLKQLLKKEWLRSPDNPMNQRAVPFNAPK | 1.402 | 0.7429 |
| DDOST (protein, UniProt P39656 43-456, looked up) Dolichyl-diphosphooligosacchar …: SGPRTLVLLDNLNVRETHSLFFRSLKDRGFELTFKTADDPSLSLIKYGEFLYDNLIIFSPSVEDFGGNINVETISAFIDGGGSVLVAASSDIGDPLRELGSECGIEFDEEKTAVIDHHNYDISDLGQHTLIVADTENLLKAPTIVGKSSLNPILFRGVGMVADPDNPLVLDILTGSSTSYSFFPDKPITQYPHAVGKNTLLIAGLQARNNARVIFSGSLDFFSDSFFNSAVQKAAPGSQRYSQTGNYELAVALSRWVFKEEGVLRVGPVSHHRVGETAPPNAYTVTDLVEYSIVIQQLSNGKWVPFDGDDIQLEFVRIDPFVRTFLKKKGGKYSVQFKLPDVYGVFQFKVDYNRLGYTHLYSSTQVSVRPLQHTQYERFIPSAYPYYASAFSMMLGLFIFSIVFLHMKEKEKSD | 1.381 | -0.4067 |

The next lines start with results.

| Difference (log2), PP1 vs untreated [1] | Molecule | Difference (log2), untreated vs GFP (GFP-14-3-3β) |
| --- | --- | --- |
| 1.412 | SLC25A13 (protein, UniProt Q9UJS0 2-675, looked up) Electrogenic …: AAAKVALTKRADPAELRTIFLKYASIEKNGEFFMSPNDFVTRYLNIFGESQPNPKTVELLSGVVDQTKDGLISFQEFVAFESVLCAPDALFMVAFQLFDKAGKGEVTFEDVKQVFGQTTIHQHIPFNWDSEFVQLHFGKERKRHLTYAEFTQFLLEIQLEHAKQAFVQRDNARTGRVTAIDFRDIMVTIRPHVLTPFVEECLVAAAGGTTSHQVSFSYFNGFNSLLNNMELIRKIYSTLAGTRKDVEVTKEEFVLAAQKFGQVTPMEVDILFQLADLYEPRGRMTLADIERIAPLEEGTLPFNLAEAQRQKASGDSARPVLLQVAESAYRFGLGSVAGAVGATAVYPIDLVKTRMQNQRSTGSFVGELMYKNSFDCFKKVLRYEGFFGLYRGLLPQLLGVAPEKAIKLTVNDFVRDKFMHKDGSVPLAAEILAGGCAGGSQVIFTNPLEIVKIRLQVAGEITTGPRVSALSVVRDLGFFGIYKGAKACFLRDIPFSAIYFPCYAHVKASFANEDGQVSPGSLLLAGAIAGMPAASLVTPADVIKTRLQVAARAGQTTYSGVIDCFRKILREEGPKALWKGAGARVFRSSPQFGVTLLTYELLQRWFYIDFGGVKPMGSEPVPKSRINLPAPNPDHVGGYKLAVATFAGIENKFGLYLPLFKPSVSTSKAIGGGP | 0.4406 |
| 1.434 | DHX36 (protein, UniProt Q9H2U1 1-1008, looked up) ATP-dependent DNA/RNA …: MSYDYHQNWGRDGGPRSSGGGYGGGPAGGHGGNRGSGGGGGGGGGGRGGRGRHPGHLKGREIGMWYAKKQGQKNKEAERQERAVVHMDERREEQIVQLLNSVQAKNDKESEAQISWFAPEDHGYGTEVSTKNTPCSENKLDIQEKKLINQEKKMFRIRNRSYIDRDSEYLLQENEPDGTLDQKLLEDLQKKKNDLRYIEMQHFREKLPSYGMQKELVNLIDNHQVTVISGETGCGKTTQVTQFILDNYIERGKGSACRIVCTQPRRISAISVAERVAAERAESCGSGNSTGYQIRLQSRLPRKQGSILYCTTGIILQWLQSDPYLSSVSHIVLDEIHERNLQSDVLMTVVKDLLNFRSDLKVILMSATLNAEKFSEYFGNCPMIHIPGFTFPVVEYLLEDVIEKIRYVPEQKEHRSQFKRGFMQGHVNRQEKEEKEAIYKERWPDYVRELRRRYSASTVDVIEMMEDDKVDLNLIVALIRYIVLEEEDGAILVFLPGWDNISTLHDLLMSQVMFKSDKFLIIPLHSLMPTVNQTQVFKRTPPGVRKIVIATNIAETSITIDDVVYVIDGGKIKETHFDTQNNISTMSAEWVSKANAKQRKGRAGRVQPGHCYHLYNGLRASLLDDYQLPEILRTPLEELCLQIKILRLGGIAYFLSRLMDPPSNEAVLLSIRHLMELNALDKQEELTPLGVHLARLPVEPHIGKMILFGALFCCLDPVLTIAASLSFKDPFVIPLGKEKIADARRKELAKDTRSDHLTVVNAFEGWEEARRRGFRYEKDYCWEYFLSSNTLQMLHNMKGQFAEHLLGAGFVSSRNPKDPESNINSDNEKIIKAVICAGLYPKVAKIRLNLGKKRKMVKVYTKTDGLVAVHPKSVNVEQTDFHYNWLIYHLKMRTSSIYLYDCTEVSPYCLLFFGGDISIQKDNDQETIAVDEWIVFQSPARIAHLVKELRKELDILLQEKIESPHPVDWNDTKSRDCAVLSAIIDLIKTQEKATPRNFPPRFQDGYYS | 0.06686 |
| 1.436 | EIF5B (protein, UniProt O60841 1-1220, looked up) Eukaryotic translation …: MGKKQKNKSEDSTKDDIDLDALAAEIEGAGAAKEQEPQKSKGKKKKEKKKQDFDEDDILKELEELSLEAQGIKADRETVAVKPTENNEEEFTSKDKKKKGQKGKKQSFDDNDSEELEDKDSKSKKTAKPKVEMYSGSDDDDDFNKLPKKAKGKAQKSNKKWDGSEEDEDNSKKIKERSRINSSGESGDESDEFLQSRKGQKKNQKNKPGPNIESGNEDDDASFKIKTVAQKKAEKKERERKKRDEEKAKLRKLKEKEELETGKKDQSKQKESQRKFEEETVKSKVTVDTGVIPASEEKAETPTAAEDDNEGDKKKKDKKKKKGEKEEKEKEKKKGPSKATVKAMQEALAKLKEEEERQKREEEERIKRLEELEAKRKEEERLEQEKRERKKQKEKERKERLKKEGKLLTKSQREARARAEATLKLLQAQGVEVPSKDSLPKKRPIYEDKKRKKIPQQLESKEVSESMELCAAVEVMEQGVPEKEETPPPVEPEEEEDTEDAGLDDWEAMASDEETEKVEGNKVHIEVKENPEEEEEEEEEEEEDEESEEEEEEEGESEGSEGDEEDEKVSDEKDSGKTLDKKPSKEMSSDSEYDSDDDRTKEERAYDKAKRRIEKRRLEHSKNVNTEKLRAPIICVLGHVDTGKTKILDKLRHTHVQDGEAGGITQQIGATNVPLEAINEQTKMIKNFDRENVRIPGMLIIDTPGHESFSNLRNRGSSLCDIAILVVDIMHGLEPQTIESINLLKSKKCPFIVALNKIDRLYDWKKSPDSDVAATLKKQKKNTKDEFEERAKAIIVEFAQQGLNAALFYENKDPRTFVSLVPTSAHTGDGMGSLIYLLVELTQTMLSKRLAHCEELRAQVMEVKALPGMGTTIDVILINGRLKEGDTIIVPGVEGPIVTQIRGLLLPPPMKELRVKNQYEKHKEVEAAQGVKILGKDLEKTLAGLPLLVAYKEDEIPVLKDELIHELKQTLNAIKLEEKGVYVQASTLGSLEALLEFLKTSEVPYAGINIGPVHKKDVMKASVMLEHDPQYAVILAFDVRIERDAQEMADSLGVRIFSAEIIYHLFDAFTKYRQDYKKQKQEEFKHIAVFPCKIKILPQYIFNSRDPIVMGVTVEAGQVKQGTPMCVPSKNFVDIGIVTSIEINHKQVDVAKKGQEVCVKIEPIPGESPKMFGRHFEATDILVSKISRQSIDALKDWFRDEMQKSDWQLIVELKKVFEII | 0.212 |
